This passage reports Kd results from article PMC5463365, “Assembly and use of high-density recombinant peptide chips for large-scale ligand screening is a practical alternative to synthetic peptide libraries” (BMC Genomics, 2017).

For experiment [1], the target named is 5'FAM-labeled Strep-tag II peptide. The experiment can be described thus: fluorescence polarisation; 20 nM 5'FAM-labeled peptide with rising concentrations of Streptavidin/StrepTactin, triplicates; ES2 buffer (100 mM potassium phosphate pH 7.4, 100 μg/ml bovine γ globulin, 0.02% NaN3); at least 2 h at RT or o/n at 4 °C. A general note: In fluorescence polarisation assays a small probe gives low polarisation when free and higher when bound to something large.

For experiment [2], the target named is 5'FAM-labeled F14.5 peptide. Described as above.

As a reminder, the Kd is the constant that tells how readily two partners part at equilibrium.

Take Recombinant StrepTactin, unconjugated: the results for the dissociation constant Kd in experiment [1] and in experiment [2] were 0.43 µM and 44.3 µM, respectively.
